Results: article PMC9654539, “Alkaline Stress Causes Changes in Polyamine Biosynthesis in Thermus thermophilus” (International Journal of Molecular Sciences, 2022)

Substrate: N=C(N)NCCCCN
Assay: purified protein
Type: biochemical, Thermus thermophilus
Settings: pH 10.0, 75 °C, 50 mM Tris-HCl, 10 μM MnCl2, 0.005–1 mM agmatine

B1: TtSpeB (aminopropylagmatine ureohydrolase) (Thermus thermophilus HB8) (protein)
chain: MRLVFGEKDTPYEEARVVVLPVPYDLSLSFLPGARRGPEAILLASRELEPFLLELGAAPEEVGIHAAEPVPWVAGMAEESHRLIREEALRHLRAGKWVVALGGDHSVTHPLVQAHREALGDFSLLHVDAHADLYPEWQGSVYSHASPFYRLLTEGFPLVQVGIRAMDRDSLRLARKKGVALFPAHRIHREGLPLDEILRALGKRVYISLDFDALDPSLMPSVGTPLPGGLSYRQVVDLLEAVFREKEVVGMDFVELSPNGQFHAEMTAAQLVYHAIGLKGLQAGWLSREVDHI
notes: gene amplified from HB8 genomic DNA, pET21b (pET21speBHis, NdeI/HindIII), His-tagged, tag not reported cut, E. coli BL21(DE3), heat step 70 °C, Ni-NTA
In the case of B1, the Km is reported as 171 µM.
